Assay results reported in paper PMC11014265.
Read-outs that look alike come from different tables or passages of the source.

T1: HrpA1-630 (Escherichia coli, UniProt P43329 1-630)
T1 sequence: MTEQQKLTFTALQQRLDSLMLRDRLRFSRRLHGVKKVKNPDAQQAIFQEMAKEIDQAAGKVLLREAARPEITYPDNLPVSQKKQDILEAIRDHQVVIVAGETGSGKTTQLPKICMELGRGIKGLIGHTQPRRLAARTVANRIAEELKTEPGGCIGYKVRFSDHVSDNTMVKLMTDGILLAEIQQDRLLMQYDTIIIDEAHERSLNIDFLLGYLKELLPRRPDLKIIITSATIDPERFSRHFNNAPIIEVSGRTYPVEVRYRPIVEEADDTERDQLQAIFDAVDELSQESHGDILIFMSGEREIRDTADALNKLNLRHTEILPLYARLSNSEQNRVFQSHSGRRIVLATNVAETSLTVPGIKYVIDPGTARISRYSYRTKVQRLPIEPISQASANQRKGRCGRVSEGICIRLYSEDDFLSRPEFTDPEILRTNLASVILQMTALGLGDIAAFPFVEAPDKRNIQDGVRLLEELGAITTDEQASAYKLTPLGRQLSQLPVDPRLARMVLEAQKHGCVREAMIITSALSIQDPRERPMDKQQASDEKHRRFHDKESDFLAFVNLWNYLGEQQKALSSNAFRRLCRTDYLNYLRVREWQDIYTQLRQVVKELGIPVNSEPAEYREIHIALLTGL

B1: D-C11 i-motif (structured_DNA)
DNA 1: CCCCCCCCCCC
DNA 2: CCCCCCCCCCC

Columns and labels:
[1] = molecular target: T1, HrpA1-630; experiment: crystal structure
[2] = molecular target: T1, HrpA1-630; experiment: crystal structure; remark: listed apart in the source

Row | Binder | binding result [1] | binding result [2]
1 | B1 | binds | 
2 | CCCCCCCCCCC (ssDNA) [D-C11, C2 complex] |  | binds
